Patent US20110052525A1, “Breaking Immunological Tolerance with a Genetically Encoded Unnatural Amino Acid” (THE SCRIPPS RESEARCH INSTITUTE, priority 2008, published 2011)

Legend:
[1] = TR-FRET retinol binding assay of mRBP4 proteins; conditions: retinol binding affinity, Cy5-labeled retinol
Experimental: The binding affinities of mRBP4 proteins were determined by a TR-FRET retinol binding assay.
WT and pNO2Phe mRBP4 mutant proteins were labeled with biotin using the Sulfo-NHS-Biotin kit (Pierce, Rockford, Ill.) according to manufacturer instructions. For determination of retinol binding activity, 10 nM biotin-labeled RBP4 was mixed with 1 nM Streptavidin-Europium chelate (LANCE® Eu-W8044 Streptavidin, Perkin Elmer, Foster City, Calif.). Increasing concentrations of Cy5-labeled retinol were added to the reaction and retinol binding was assessed by homogeneous time-resolved fluorescence resonance energy transfer (TR-FRET).

[2] = target: T1, mRBP4 (Mus musculus, UniProt Q00724); experiment: Serum IgG titers by ELISA after RIMMS immunization of mice with mRBP4 variants; assay type: in vivo
T1 construct: The cDNA encoding murine RBP4 (aa 19-201); made in house; host or cells: E. coli BL21(DE3)
Experimental: 30 μl of 0.5 μg/ml protein was used to coat the wells of Maxisorp 384-well plates (Nunc, Rochester, N.Y.) overnight at 4° C. After washing with PBS+0.05% Tween 20 (PBST), the coated plates were blocked with 80 μl of 1% BSA in PBS, and washed again with PBST. The plates were sequentially incubated with 20 μl of primary antibody or serum diluted in 1% BSA in PBS, 20 μl of HRP-conjugated goat anti-mouse IgG or anti-mouse IgM (Jackson ImmunoResearch Laboratories, West Grove, Pa.), and 20 μl of TMB substrate (KPL, Gaithersburg, Md.), and read at an absorbance of 650 nm. Between incubations, the plates were washed at least six times with PBST.
Before measurement, serum samples were diluted 1:1,000 with 1% BSA in PBS buffer.

Kd [1]: 171 nM
serum IgG titers against WT mRBP4 ([2]; Bcl2 mice, RIMMS, ELISA (FIG. 19)): insignificant serum IgG titers
serum IgG titers against WT mRBP4 ([2]; C57BL/6 mice, ELISA (FIG. 26)): insignificant serum IgG titers
Substance: WT mRBP4: wild-type murine retinol binding protein 4
